According to article PMC3605642 (The Journal of Biological Chemistry, 2013):
Where a chain is given by its changes, count along the chain named. Names may count otherwise. Read-outs that look alike come from different tables or passages of the source.

B1: RIAM(1–127) (TBS1-TBS2) (domain or fragment)
chain: MGESNEDIDQMFSTLLGEMDLLTQSLGVDTLPPPDPNPPREEFNYTVGFKDLNESLNALEDQDLDALMADLVADISEAEQRTIQAQKESSQNQDRFALLRASDGQGTASGGYGASAAAIDVSHHEEA
B2: RIAM wild type peptide (6-30), TBS1 (peptide)
peptide: EDIDQMFSTLLGEMDLLTQSLGVDT
B3: RIAM(1–32) (TBS1) (peptide, UniProt Q8R5A3 1-32, looked up)
peptide: MGESNEDIDQMFSTLLGEMDLLTQSLGVDTLP
B4: talin R3 rod domain (residues 787–911) (domain or fragment, mouse, UniProt P26039 787-911, looked up)
chain: AHATGAGPAGRYDQATDTILTVTENIFSSMGDAGEMVRQARILAQATSDLVNAIKADAEGESDLENSRKLLSAAKILADATAKMVEAAKGAAAHPDSEEQQQRLREAAEGLRMATNAAAQNAIKK
B5: talin R3 IVVI mutant (T809I/T833V/T867V/T901I) (domain or fragment, mouse, UniProt P26039 787-911, looked up)
chain: B4 chain with T23I, T47V, T81V, T115I
B6: talin VBS (residues 820–844) in talin R3 (peptide, UniProt P26039 820-844, looked up)
peptide: GEMVRQARILAQATSDLVNAIKADA

Key:
[1] = molecular target: vinculin domain 1 (Vd1; residues 1–258) (chicken) (UniProt P12003); assay: SEC-MALS
[2] = molecular target: talin R2R3 double domain fragment (mouse); assay: ITC
[3] = molecular target: talin R2R3 double domain fragment (mouse); assay: SEC-MALS
[4] = molecular target: B5; assay: NMR titration
[5] = molecular target: B4; assay: NMR titration
[6] = molecular target: B4; assay: ITC
[7] = molecular target: T1, vinculin domain 1 (Vd1; residues 1–258) (chicken, UniProt P12003 1-258); assay: ITC
T1 sequence (looked up): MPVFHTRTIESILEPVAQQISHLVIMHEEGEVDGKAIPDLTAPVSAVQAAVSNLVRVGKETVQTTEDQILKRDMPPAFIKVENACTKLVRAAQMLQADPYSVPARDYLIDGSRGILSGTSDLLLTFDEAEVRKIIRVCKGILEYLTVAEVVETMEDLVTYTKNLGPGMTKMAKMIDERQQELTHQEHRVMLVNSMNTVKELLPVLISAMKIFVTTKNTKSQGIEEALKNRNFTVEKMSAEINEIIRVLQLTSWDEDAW

[8] = molecular target: T1, vinculin domain 1 (Vd1; residues 1–258); assay: SEC
[9] = molecular target: T1, vinculin domain 1 (Vd1; residues 1–258); assay: SEC; remark: listed apart in the source

talin R2R3 double domain fragment (mouse), sequence (P26039 whole entry, the tested form may be a part): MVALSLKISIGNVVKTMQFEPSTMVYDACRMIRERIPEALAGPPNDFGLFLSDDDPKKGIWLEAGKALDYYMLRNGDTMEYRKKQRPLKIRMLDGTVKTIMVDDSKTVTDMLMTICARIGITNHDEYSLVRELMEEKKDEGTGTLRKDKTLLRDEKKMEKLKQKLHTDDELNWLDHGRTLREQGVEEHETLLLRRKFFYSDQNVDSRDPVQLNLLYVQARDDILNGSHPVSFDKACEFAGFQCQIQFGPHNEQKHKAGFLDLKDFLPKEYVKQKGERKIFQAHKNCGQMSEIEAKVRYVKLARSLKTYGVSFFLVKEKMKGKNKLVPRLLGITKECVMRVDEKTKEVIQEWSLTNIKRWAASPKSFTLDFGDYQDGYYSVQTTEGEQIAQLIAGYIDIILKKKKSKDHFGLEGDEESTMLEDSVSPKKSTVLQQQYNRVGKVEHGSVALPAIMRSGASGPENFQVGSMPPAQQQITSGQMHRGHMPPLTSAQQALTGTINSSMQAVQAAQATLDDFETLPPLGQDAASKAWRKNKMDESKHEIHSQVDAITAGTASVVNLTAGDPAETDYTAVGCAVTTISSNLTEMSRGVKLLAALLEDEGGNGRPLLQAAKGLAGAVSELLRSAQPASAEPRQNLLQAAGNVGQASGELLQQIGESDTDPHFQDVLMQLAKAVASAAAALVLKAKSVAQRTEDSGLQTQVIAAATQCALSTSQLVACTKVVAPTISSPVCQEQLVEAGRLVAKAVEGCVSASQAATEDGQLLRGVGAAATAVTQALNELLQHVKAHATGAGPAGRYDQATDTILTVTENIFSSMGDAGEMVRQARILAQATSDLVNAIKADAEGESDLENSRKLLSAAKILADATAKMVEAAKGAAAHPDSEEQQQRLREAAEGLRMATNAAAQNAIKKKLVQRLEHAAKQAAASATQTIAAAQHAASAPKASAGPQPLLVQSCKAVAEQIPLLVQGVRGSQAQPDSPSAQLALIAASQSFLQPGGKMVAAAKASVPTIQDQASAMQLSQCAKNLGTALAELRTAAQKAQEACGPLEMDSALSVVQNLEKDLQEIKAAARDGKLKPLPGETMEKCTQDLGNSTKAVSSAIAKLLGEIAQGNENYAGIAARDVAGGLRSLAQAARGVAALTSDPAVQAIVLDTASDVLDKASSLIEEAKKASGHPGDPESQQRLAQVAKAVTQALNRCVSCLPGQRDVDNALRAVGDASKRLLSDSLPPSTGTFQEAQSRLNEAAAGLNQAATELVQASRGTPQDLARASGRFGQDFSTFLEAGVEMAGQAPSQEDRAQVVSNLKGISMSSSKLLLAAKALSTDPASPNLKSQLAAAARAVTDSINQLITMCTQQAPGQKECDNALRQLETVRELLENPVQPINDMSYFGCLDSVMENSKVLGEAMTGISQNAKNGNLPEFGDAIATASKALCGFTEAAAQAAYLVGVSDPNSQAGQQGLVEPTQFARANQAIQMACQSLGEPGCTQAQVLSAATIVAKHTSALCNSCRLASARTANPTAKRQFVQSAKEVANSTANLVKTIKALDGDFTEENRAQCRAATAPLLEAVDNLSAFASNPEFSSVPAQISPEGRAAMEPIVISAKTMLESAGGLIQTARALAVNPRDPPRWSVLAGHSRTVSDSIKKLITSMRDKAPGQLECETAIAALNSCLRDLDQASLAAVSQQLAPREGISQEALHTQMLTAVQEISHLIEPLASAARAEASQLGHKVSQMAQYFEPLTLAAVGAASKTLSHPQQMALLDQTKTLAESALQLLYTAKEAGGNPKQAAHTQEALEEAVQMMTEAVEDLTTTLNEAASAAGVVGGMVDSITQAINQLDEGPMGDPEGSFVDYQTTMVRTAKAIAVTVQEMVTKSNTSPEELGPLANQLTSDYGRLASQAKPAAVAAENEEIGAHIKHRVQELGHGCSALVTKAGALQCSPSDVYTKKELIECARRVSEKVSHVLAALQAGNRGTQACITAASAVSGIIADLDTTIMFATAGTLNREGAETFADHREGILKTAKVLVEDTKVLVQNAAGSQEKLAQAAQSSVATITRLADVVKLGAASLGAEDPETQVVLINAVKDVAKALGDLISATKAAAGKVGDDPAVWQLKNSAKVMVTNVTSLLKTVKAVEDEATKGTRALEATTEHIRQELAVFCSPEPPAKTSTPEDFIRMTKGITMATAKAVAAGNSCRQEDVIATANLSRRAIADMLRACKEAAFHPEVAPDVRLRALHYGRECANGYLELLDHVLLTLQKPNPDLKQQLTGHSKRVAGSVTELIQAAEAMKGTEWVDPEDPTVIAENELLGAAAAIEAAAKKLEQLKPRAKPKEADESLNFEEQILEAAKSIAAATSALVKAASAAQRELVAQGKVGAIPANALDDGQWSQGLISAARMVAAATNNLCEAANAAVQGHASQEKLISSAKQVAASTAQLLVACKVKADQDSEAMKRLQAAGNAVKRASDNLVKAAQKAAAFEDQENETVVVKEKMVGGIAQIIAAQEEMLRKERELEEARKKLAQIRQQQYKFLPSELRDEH

Question: For “talin R2R3 double domain fragment (domain or fragment)”, which stoichiometry N [1] is on record?
Answer: 4 Vd1 per R2R3

Question: Which Kd [2] does the source give for B1 here?
Answer: 2000 nM

Question: What about the stoichiometry N [3] of the same molecule?
Answer: 1

Question: What does the source list for B2?
Answer: binding result [4]: binds; binding result [5]: binds

Question: Which Kd [6] does the source give for B3 here?
Answer: 36000 nM

Question: And the dH [7]?
Answer: -1.5 kcal

Question: Does B4 bind [8]?
Answer: binds

Question: Does B5 bind [9]?
Answer: binds

Question: For B6, which Kd [7] is on record?
Answer: 800 nM

Question: And the dH [7]?
Answer: -5.9 kcal
